B1: Variant A2M, bait region SEQ ID NO 135, P01023 24-1474 (protein)
chain: SVSGKPQYMVLVPSLLHTETTEKGCVLLSYLNETVTVSASLESVRGNRSLFTDLEAENDVLHCVAFAVPKSSSNEEVMFLTVQVKGPTQEFKKRTTVMVKNEDSLVFVQTDKSIYKPGQTVKFRVVSMDENFHPLNELIPLVYIQDPKGNRIAQWQSFQLEGGLKQFSFPLSSEPFQGSYKVVVQKKSGGRTEHPFTVEEFVLPKFEVQVTVPKIITILEEEMNVSVCGLYTYGKPVPGHVTVSICRKYSDASDCHGEDSQAFCEKFSGQLNSHGCFYQQVKTKVFQLKRKEYEMKLHTEAQIQEEGTVVELTGRQSSEITRTITKLSFVKVDSHFRQGIPFFGQVRLVDGKGVPIPNKVIFIRGNEANYYSNATTDEHGLVQFSINTTNVMGTSLTVRVNYKDRSPCYGYQWVSEEHEEAHHTAYLVFSPSKSFVHLEPMSHELPCGHTQTVQAHYILNGGTLLGLKKLSFYYLIMAKGGIVRTGTHGLLVKQEDMKGHFSISIPVKSDIAPVARLLIYAVLPTGDVIGDSAKYDVENCLANKVDLSFSPSQSLPASHAHLRVTAAPQSVCALRAVDQSVLLMKPDAELSASSVYNLLPEKDLTGFPGPLNDQDDEDCINRHNVYINGITYTPVSSTNEKDMYSFLEDMGLKAFTNSKIRKPKMCPQLEQYEMHGPIPENFFGVSELEGRGSSEDLVVQIKEEEGLGSVEEPHTKLRKYFPETWIWDLVVVNSAGVAEVGVTVPDTITEWKAGAFCLSEDAGLGISSTASLRAFQPFFVELTMPYSVIRGEAFTLKATVLNYLPKCIRVSVQLEASPAFLAVPVEKEQAPHCICANGRQTVSWAVTPKSLGNVNFTVSAEALESQELCGTEVPSVPEHGRKDTVIKPLLVEPEGLEKETTFNSLLCPSGGEVSEELSLKLPPNVVEESARASVSVLGDILGSAMQNTQNLLQMPYGCGEQNMVLFAPNIYVLDYLNETQQLTPEIKSKAIGYLNTGYQRQLNYKHYDGSYSTFGERYGRNQGNTWLTAFVLKTFAQARAYIFIDEAHITQALIWLSQRQKDNGCFRSSGSLLNNAIKGGVEDEVTLSAYITIALLEIPLTVTHPVVRNALFCLESAWKTAQEGDHGSHVYTKALLAYAFALAGNQDKRKEVLKSLNEEAVKKDNSVHWERPQKPKAPVGHFYEPQAPSAEVEMTSYVLLAYLTAQPAPTSEDLTSATNIVKWITKQQNAQGGFSSTQDTVVALHALSKYGAATFTRTGKAAQVTIQSSGTFSSKFQVDNNNRLLLQQVSLPELPGEYSMKVTGEGCVYLQTSLKYNILPEKEEFPFALGVQTLPQTCDEPKAHTSFQISLSVSYTGSRSASNMAIVDVKMVSGFIPLKPTVKMLERSNHVSRTEVSSNHVLIYLDKVSNQTLSLFFTVLQDVPVRDLKPAIVKVYDYYETDEFAIAEYNAPCSKDLGNADYKDDDDKGASHHHHHH
B2: Variant A2M, bait region SEQ ID NO 136, P01023 24-1474 (protein)
chain: SVSGKPQYMVLVPSLLHTETTEKGCVLLSYLNETVTVSASLESVRGNRSLFTDLEAENDVLHCVAFAVPKSSSNEEVMFLTVQVKGPTQEFKKRTTVMVKNEDSLVFVQTDKSIYKPGQTVKFRVVSMDENFHPLNELIPLVYIQDPKGNRIAQWQSFQLEGGLKQFSFPLSSEPFQGSYKVVVQKKSGGRTEHPFTVEEFVLPKFEVQVTVPKIITILEEEMNVSVCGLYTYGKPVPGHVTVSICRKYSDASDCHGEDSQAFCEKFSGQLNSHGCFYQQVKTKVFQLKRKEYEMKLHTEAQIQEEGTVVELTGRQSSEITRTITKLSFVKVDSHFRQGIPFFGQVRLVDGKGVPIPNKVIFIRGNEANYYSNATTDEHGLVQFSINTTNVMGTSLTVRVNYKDRSPCYGYQWVSEEHEEAHHTAYLVFSPSKSFVHLEPMSHELPCGHTQTVQAHYILNGGTLLGLKKLSFYYLIMAKGGIVRTGTHGLLVKQEDMKGHFSISIPVKSDIAPVARLLIYAVLPTGDVIGDSAKYDVENCLANKVDLSFSPSQSLPASHAHLRVTAAPQSVCALRAVDQSVLLMKPDAELSASSVYNLLPEKDLTGFPGPLNDQDDEDCINRHNVYINGITYTPVSSTNEKDMYSFLEDMGLKAFTNSKIRKPKMCPQLEQYEMHGPKEEEGLGSIPENFFGVSELEGRGSEGEGEGEGVEEPHTKLRKYFPETWIWDLVVVNSAGVAEVGVTVPDTITEWKAGAFCLSEDAGLGISSTASLRAFQPFFVELTMPYSVIRGEAFTLKATVLNYLPKCIRVSVQLEASPAFLAVPVEKEQAPHCICANGRQTVSWAVTPKSLGNVNFTVSAEALESQELCGTEVPSVPEHGRKDTVIKPLLVEPEGLEKETTFNSLLCPSGGEVSEELSLKLPPNVVEESARASVSVLGDILGSAMQNTQNLLQMPYGCGEQNMVLFAPNIYVLDYLNETQQLTPEIKSKAIGYLNTGYQRQLNYKHYDGSYSTFGERYGRNQGNTWLTAFVLKTFAQARAYIFIDEAHITQALIWLSQRQKDNGCFRSSGSLLNNAIKGGVEDEVTLSAYITIALLEIPLTVTHPVVRNALFCLESAWKTAQEGDHGSHVYTKALLAYAFALAGNQDKRKEVLKSLNEEAVKKDNSVHWERPQKPKAPVGHFYEPQAPSAEVEMTSYVLLAYLTAQPAPTSEDLTSATNIVKWITKQQNAQGGFSSTQDTVVALHALSKYGAATFTRTGKAAQVTIQSSGTFSSKFQVDNNNRLLLQQVSLPELPGEYSMKVTGEGCVYLQTSLKYNILPEKEEFPFALGVQTLPQTCDEPKAHTSFQISLSVSYTGSRSASNMAIVDVKMVSGFIPLKPTVKMLERSNHVSRTEVSSNHVLIYLDKVSNQTLSLFFTVLQDVPVRDLKPAIVKVYDYYETDEFAIAEYNAPCSKDLGNADYKDDDDKGASHHHHHH
B3: Variant A2M, bait region SEQ ID NO 133, P01023 24-1474 (protein)
chain: SVSGKPQYMVLVPSLLHTETTEKGCVLLSYLNETVTVSASLESVRGNRSLFTDLEAENDVLHCVAFAVPKSSSNEEVMFLTVQVKGPTQEFKKRTTVMVKNEDSLVFVQTDKSIYKPGQTVKFRVVSMDENFHPLNELIPLVYIQDPKGNRIAQWQSFQLEGGLKQFSFPLSSEPFQGSYKVVVQKKSGGRTEHPFTVEEFVLPKFEVQVTVPKIITILEEEMNVSVCGLYTYGKPVPGHVTVSICRKYSDASDCHGEDSQAFCEKFSGQLNSHGCFYQQVKTKVFQLKRKEYEMKLHTEAQIQEEGTVVELTGRQSSEITRTITKLSFVKVDSHFRQGIPFFGQVRLVDGKGVPIPNKVIFIRGNEANYYSNATTDEHGLVQFSINTTNVMGTSLTVRVNYKDRSPCYGYQWVSEEHEEAHHTAYLVFSPSKSFVHLEPMSHELPCGHTQTVQAHYILNGGTLLGLKKLSFYYLIMAKGGIVRTGTHGLLVKQEDMKGHFSISIPVKSDIAPVARLLIYAVLPTGDVIGDSAKYDVENCLANKVDLSFSPSQSLPASHAHLRVTAAPQSVCALRAVDQSVLLMKPDAELSASSVYNLLPEKDLTGFPGPLNDQDDEDCINRHNVYINGITYTPVSSTNEKDMYSFLEDMGLKAFTNSKIRKPKMCPQLEQYEMHGPIPENFFGVEGEGEGESELEGRGSSEDLVVQIVEEPHTKLRKYFPETWIWDLVVVNSAGVAEVGVTVPDTITEWKAGAFCLSEDAGLGISSTASLRAFQPFFVELTMPYSVIRGEAFTLKATVLNYLPKCIRVSVQLEASPAFLAVPVEKEQAPHCICANGRQTVSWAVTPKSLGNVNFTVSAEALESQELCGTEVPSVPEHGRKDTVIKPLLVEPEGLEKETTFNSLLCPSGGEVSEELSLKLPPNVVEESARASVSVLGDILGSAMQNTQNLLQMPYGCGEQNMVLFAPNIYVLDYLNETQQLTPEIKSKAIGYLNTGYQRQLNYKHYDGSYSTFGERYGRNQGNTWLTAFVLKTFAQARAYIFIDEAHITQALIWLSQRQKDNGCFRSSGSLLNNAIKGGVEDEVTLSAYITIALLEIPLTVTHPVVRNALFCLESAWKTAQEGDHGSHVYTKALLAYAFALAGNQDKRKEVLKSLNEEAVKKDNSVHWERPQKPKAPVGHFYEPQAPSAEVEMTSYVLLAYLTAQPAPTSEDLTSATNIVKWITKQQNAQGGFSSTQDTVVALHALSKYGAATFTRTGKAAQVTIQSSGTFSSKFQVDNNNRLLLQQVSLPELPGEYSMKVTGEGCVYLQTSLKYNILPEKEEFPFALGVQTLPQTCDEPKAHTSFQISLSVSYTGSRSASNMAIVDVKMVSGFIPLKPTVKMLERSNHVSRTEVSSNHVLIYLDKVSNQTLSLFFTVLQDVPVRDLKPAIVKVYDYYETDEFAIAEYNAPCSKDLGNADYKDDDDKGASHHHHHH
B4: Variant A2M, bait region SEQ ID NO 134, P01023 24-1474 (protein)
chain: SVSGKPQYMVLVPSLLHTETTEKGCVLLSYLNETVTVSASLESVRGNRSLFTDLEAENDVLHCVAFAVPKSSSNEEVMFLTVQVKGPTQEFKKRTTVMVKNEDSLVFVQTDKSIYKPGQTVKFRVVSMDENFHPLNELIPLVYIQDPKGNRIAQWQSFQLEGGLKQFSFPLSSEPFQGSYKVVVQKKSGGRTEHPFTVEEFVLPKFEVQVTVPKIITILEEEMNVSVCGLYTYGKPVPGHVTVSICRKYSDASDCHGEDSQAFCEKFSGQLNSHGCFYQQVKTKVFQLKRKEYEMKLHTEAQIQEEGTVVELTGRQSSEITRTITKLSFVKVDSHFRQGIPFFGQVRLVDGKGVPIPNKVIFIRGNEANYYSNATTDEHGLVQFSINTTNVMGTSLTVRVNYKDRSPCYGYQWVSEEHEEAHHTAYLVFSPSKSFVHLEPMSHELPCGHTQTVQAHYILNGGTLLGLKKLSFYYLIMAKGGIVRTGTHGLLVKQEDMKGHFSISIPVKSDIAPVARLLIYAVLPTGDVIGDSAKYDVENCLANKVDLSFSPSQSLPASHAHLRVTAAPQSVCALRAVDQSVLLMKPDAELSASSVYNLLPEKDLTGFPGPLNDQDDEDCINRHNVYINGITYTPVSSTNEKDMYSFLEDMGLKAFTNSKIRKPKMCPQLEQYEMHGPSELEGRGSIPENFFGVKEEEGLGSSEDLVVQIVEEPHTKLRKYFPETWIWDLVVVNSAGVAEVGVTVPDTITEWKAGAFCLSEDAGLGISSTASLRAFQPFFVELTMPYSVIRGEAFTLKATVLNYLPKCIRVSVQLEASPAFLAVPVEKEQAPHCICANGRQTVSWAVTPKSLGNVNFTVSAEALESQELCGTEVPSVPEHGRKDTVIKPLLVEPEGLEKETTFNSLLCPSGGEVSEELSLKLPPNVVEESARASVSVLGDILGSAMQNTQNLLQMPYGCGEQNMVLFAPNIYVLDYLNETQQLTPEIKSKAIGYLNTGYQRQLNYKHYDGSYSTFGERYGRNQGNTWLTAFVLKTFAQARAYIFIDEAHITQALIWLSQRQKDNGCFRSSGSLLNNAIKGGVEDEVTLSAYITIALLEIPLTVTHPVVRNALFCLESAWKTAQEGDHGSHVYTKALLAYAFALAGNQDKRKEVLKSLNEEAVKKDNSVHWERPQKPKAPVGHFYEPQAPSAEVEMTSYVLLAYLTAQPAPTSEDLTSATNIVKWITKQQNAQGGFSSTQDTVVALHALSKYGAATFTRTGKAAQVTIQSSGTFSSKFQVDNNNRLLLQQVSLPELPGEYSMKVTGEGCVYLQTSLKYNILPEKEEFPFALGVQTLPQTCDEPKAHTSFQISLSVSYTGSRSASNMAIVDVKMVSGFIPLKPTVKMLERSNHVSRTEVSSNHVLIYLDKVSNQTLSLFFTVLQDVPVRDLKPAIVKVYDYYETDEFAIAEYNAPCSKDLGNADYKDDDDKGASHHHHHH

Molecular target: Protease Mixtures
Assay: cell-based or functional assay

Binder | Protease Inhibition (% of WT); Protease Mixtures, IGD Substrate | Protease Inhibition (% of WT); Protease Mixtures, Collagen Substrate
B1 | 140 % of WT | –
B2 | 215 % of WT | 170 % of WT
B3 | 75 % of WT | –
B4 | 220 % of WT | –
